# T1: SNTB1, Q13884
# T1 sequence (Q13884 107-205, limits assumed, looked up): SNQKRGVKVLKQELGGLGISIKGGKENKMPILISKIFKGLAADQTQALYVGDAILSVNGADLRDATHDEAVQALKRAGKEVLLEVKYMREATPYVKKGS
# T2: PDZD7_3, Q9H5P4
# T2 sequence (Q9H5P4 857-944, limits assumed, looked up): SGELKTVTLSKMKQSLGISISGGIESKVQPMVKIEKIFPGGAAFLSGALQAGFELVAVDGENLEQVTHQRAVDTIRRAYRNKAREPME
# T3: GRIP1_3, Q9Y3R0
# T3 sequence (Q9Y3R0 247-346, limits assumed, looked up): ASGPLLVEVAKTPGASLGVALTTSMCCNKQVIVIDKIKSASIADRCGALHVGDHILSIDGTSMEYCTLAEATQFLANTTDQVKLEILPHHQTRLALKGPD
# T4: MPDZ_10, O75970
# T4 sequence (O75970 1624-1722, limits assumed, looked up): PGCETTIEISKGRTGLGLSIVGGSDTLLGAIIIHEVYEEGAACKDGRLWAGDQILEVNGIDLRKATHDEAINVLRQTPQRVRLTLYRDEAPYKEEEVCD
# T5: TX1BP3, O14907
# T5 sequence (O14907 10-122, limits assumed, looked up): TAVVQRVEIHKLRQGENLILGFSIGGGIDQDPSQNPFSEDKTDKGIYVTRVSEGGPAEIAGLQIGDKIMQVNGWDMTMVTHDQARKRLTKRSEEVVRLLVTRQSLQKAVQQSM
# T6: SYNJ2BP, P57105
# T6 sequence (P57105 8-110, limits assumed, looked up): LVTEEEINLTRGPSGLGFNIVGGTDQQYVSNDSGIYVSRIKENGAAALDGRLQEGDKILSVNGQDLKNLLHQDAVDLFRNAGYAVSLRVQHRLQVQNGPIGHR
# T7: GRIP1_7, Q9Y3R0
# T7 sequence (Q9Y3R0 999-1096, limits assumed, looked up): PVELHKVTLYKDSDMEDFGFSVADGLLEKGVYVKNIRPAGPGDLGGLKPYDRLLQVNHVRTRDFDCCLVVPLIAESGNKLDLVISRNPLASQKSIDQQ
# T8: APBA1_1, Q02410
# T8 sequence (Q02410 651-752, limits assumed, looked up): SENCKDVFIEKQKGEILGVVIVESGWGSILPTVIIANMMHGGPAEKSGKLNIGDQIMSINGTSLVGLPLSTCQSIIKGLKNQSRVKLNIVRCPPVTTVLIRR
# T9: APBA1_2, Q02410
# T9 sequence (Q02410 742-832, limits assumed, looked up): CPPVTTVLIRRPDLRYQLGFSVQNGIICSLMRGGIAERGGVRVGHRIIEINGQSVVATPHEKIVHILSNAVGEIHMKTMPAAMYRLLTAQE
# T10: LNX2_3, Q8N448
# T10 sequence (Q8N448 463-564, limits assumed, looked up): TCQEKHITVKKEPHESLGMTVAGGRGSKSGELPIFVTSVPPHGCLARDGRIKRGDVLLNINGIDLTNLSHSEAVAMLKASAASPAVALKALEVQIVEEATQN
# T11: SHANK1, Q9Y566
# T11 sequence (Q9Y566 658-767, limits assumed, looked up): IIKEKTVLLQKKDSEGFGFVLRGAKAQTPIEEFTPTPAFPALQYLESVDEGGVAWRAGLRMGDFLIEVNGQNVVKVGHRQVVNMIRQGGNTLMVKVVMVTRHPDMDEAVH
# T12: MPP7, Q5T2T1
# T12 sequence (Q5T2T1 134-230, limits assumed, looked up): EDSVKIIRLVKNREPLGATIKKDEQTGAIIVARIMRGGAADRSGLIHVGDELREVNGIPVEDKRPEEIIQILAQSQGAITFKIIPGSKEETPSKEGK
# T13: HTRA3, P83110
# T13 sequence (P83110 354-453, limits assumed, looked up): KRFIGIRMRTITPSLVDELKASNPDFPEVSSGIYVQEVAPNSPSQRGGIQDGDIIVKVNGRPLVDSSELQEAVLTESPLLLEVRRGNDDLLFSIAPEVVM
# Molecular target: PARD3_3, Q8TEW0
# Assay: holdup assay
# Set-up: key: below the threshold = too weak to quantify, mostly under pKd 3.1 to 4
# Conditions: plain residues with an end cap or a label only (N-terminal biotin on a linker: ado-ado)
# PARD3_3, Q8TEW0, sequence (Q8TEW0 582-685): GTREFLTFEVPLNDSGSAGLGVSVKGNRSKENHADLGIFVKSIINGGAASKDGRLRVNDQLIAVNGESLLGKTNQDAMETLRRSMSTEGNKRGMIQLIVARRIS
row,Binder,pKd
1,"ANGLMQTSKL [SSTR5, P35346]",below the threshold
2,"ETSLVKGIDI [DENND5A, Q6IQ26]",3.83

# Molecular target: Inadl_1, Q8NI35
# Assay: holdup assay
# Set-up: key: below the threshold = too weak to quantify, mostly under pKd 3.1 to 4
# Conditions: plain residues with an end cap or a label only (N-terminal biotin on a linker: ado-ado)
# Inadl_1, Q8NI35, sequence (Q8NI35 113-229): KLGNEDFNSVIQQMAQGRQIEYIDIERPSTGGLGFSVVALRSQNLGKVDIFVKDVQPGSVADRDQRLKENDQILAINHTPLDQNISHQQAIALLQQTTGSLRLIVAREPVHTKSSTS
row,Binder,pKd
1,"ANGLMQTSKL [SSTR5, P35346]",below the threshold
2,"ETSLVKGIDI [DENND5A, Q6IQ26]",below the threshold

# Molecular target: DLG2_2, Q15700
# Assay: holdup assay
# Set-up: key: below the threshold = too weak to quantify, mostly under pKd 3.1 to 4
# Conditions: plain residues with an end cap or a label only (N-terminal biotin on a linker: ado-ado)
# DLG2_2, Q15700, sequence (Q15700 189-283): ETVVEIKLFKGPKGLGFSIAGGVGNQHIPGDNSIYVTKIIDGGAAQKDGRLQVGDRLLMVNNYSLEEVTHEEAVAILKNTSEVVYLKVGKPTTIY
row,Binder,pKd
1,"ANGLMQTSKL [SSTR5, P35346]",below the threshold
2,"ETSLVKGIDI [DENND5A, Q6IQ26]",below the threshold

# Molecular target: GIPC2, Q8TF65
# Assay: holdup assay
# Set-up: key: below the threshold = too weak to quantify, mostly under pKd 3.1 to 4
# Conditions: plain residues with an end cap or a label only (N-terminal biotin on a linker: ado-ado)
# GIPC2, Q8TF65, sequence (Q8TF65 112-203): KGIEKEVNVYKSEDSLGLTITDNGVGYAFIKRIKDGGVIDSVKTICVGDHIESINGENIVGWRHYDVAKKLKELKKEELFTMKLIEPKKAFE
row,Binder,pKd
1,"ANGLMQTSKL [SSTR5, P35346]",below the threshold
2,"ETSLVKGIDI [DENND5A, Q6IQ26]",3.54

# Molecular target: MAST1, Q9Y2H9
# Assay: holdup assay
# Set-up: key: below the threshold = too weak to quantify, mostly under pKd 3.1 to 4
# Conditions: plain residues with an end cap or a label only (N-terminal biotin on a linker: ado-ado)
# MAST1, Q9Y2H9, sequence (Q9Y2H9 962-1065): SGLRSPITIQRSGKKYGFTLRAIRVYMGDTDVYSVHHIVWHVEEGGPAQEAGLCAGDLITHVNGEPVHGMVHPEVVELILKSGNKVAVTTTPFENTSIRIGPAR
row,Binder,pKd
1,"ANGLMQTSKL [SSTR5, P35346]",4.63
2,"ETSLVKGIDI [DENND5A, Q6IQ26]",below the threshold

# Molecular target: T1, SNTB1, Q13884
# Assay: holdup assay
# Set-up: key: below the threshold = too weak to quantify, mostly under pKd 3.1 to 4
# Conditions: plain residues with an end cap or a label only (N-terminal biotin on a linker: ado-ado)
row,Binder,pKd
1,"ANGLMQTSKL [SSTR5, P35346]",below the threshold
2,"ETSLVKGIDI [DENND5A, Q6IQ26]",below the threshold

# Molecular target: MAGI3_2, Q5TCQ9
# Assay: holdup assay
# Set-up: key: below the threshold = too weak to quantify, mostly under pKd 3.1 to 4
# Conditions: plain residues with an end cap or a label only (N-terminal biotin on a linker: ado-ado)
# MAGI3_2, Q5TCQ9, sequence (Q5TCQ9 398-503): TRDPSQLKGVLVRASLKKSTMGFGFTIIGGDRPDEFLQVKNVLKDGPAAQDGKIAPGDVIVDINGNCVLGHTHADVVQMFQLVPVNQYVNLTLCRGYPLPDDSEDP
row,Binder,pKd
1,"ANGLMQTSKL [SSTR5, P35346]",below the threshold
2,"ETSLVKGIDI [DENND5A, Q6IQ26]",4.39

# Molecular target: T2, PDZD7_3, Q9H5P4
# Assay: holdup assay
# Set-up: key: below the threshold = too weak to quantify, mostly under pKd 3.1 to 4
# Conditions: plain residues with an end cap or a label only (N-terminal biotin on a linker: ado-ado)
row,Binder,pKd
1,"ANGLMQTSKL [SSTR5, P35346]",4.22
2,"ETSLVKGIDI [DENND5A, Q6IQ26]",below the threshold

# Molecular target: T3, GRIP1_3, Q9Y3R0
# Assay: holdup assay
# Set-up: key: below the threshold = too weak to quantify, mostly under pKd 3.1 to 4
# Conditions: plain residues with an end cap or a label only (N-terminal biotin on a linker: ado-ado)
row,Binder,pKd
1,"ANGLMQTSKL [SSTR5, P35346]",below the threshold
2,"ETSLVKGIDI [DENND5A, Q6IQ26]",below the threshold

# Molecular target: GRID2IP_2, A4D2P6
# Assay: holdup assay
# Set-up: key: below the threshold = too weak to quantify, mostly under pKd 3.1 to 4
# Conditions: plain residues with an end cap or a label only (N-terminal biotin on a linker: ado-ado)
# GRID2IP_2, A4D2P6, sequence (A4D2P6 272-370): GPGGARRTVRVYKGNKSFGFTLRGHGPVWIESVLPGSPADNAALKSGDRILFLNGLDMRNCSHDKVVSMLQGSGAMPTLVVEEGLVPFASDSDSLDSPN
row,Binder,pKd
1,"ANGLMQTSKL [SSTR5, P35346]",4.48
2,"ETSLVKGIDI [DENND5A, Q6IQ26]",below the threshold

# Molecular target: T4, MPDZ_10, O75970
# Assay: holdup assay
# Set-up: key: below the threshold = too weak to quantify, mostly under pKd 3.1 to 4
# Conditions: plain residues with an end cap or a label only (N-terminal biotin on a linker: ado-ado)
row,Binder,pKd
1,"ANGLMQTSKL [SSTR5, P35346]",below the threshold
2,"ETSLVKGIDI [DENND5A, Q6IQ26]",below the threshold

# Molecular target: T5, TX1BP3, O14907
# Assay: holdup assay
# Set-up: key: below the threshold = too weak to quantify, mostly under pKd 3.1 to 4
# Conditions: plain residues with an end cap or a label only (N-terminal biotin on a linker: ado-ado)
row,Binder,pKd
1,"ANGLMQTSKL [SSTR5, P35346]",4.11
2,"ETSLVKGIDI [DENND5A, Q6IQ26]",below the threshold

# Molecular target: FRMPD2_1, Q68DX3
# Assay: holdup assay
# Set-up: key: below the threshold = too weak to quantify, mostly under pKd 3.1 to 4
# Conditions: plain residues with an end cap or a label only (N-terminal biotin on a linker: ado-ado)
# FRMPD2_1, Q68DX3, sequence (Q68DX3 770-861): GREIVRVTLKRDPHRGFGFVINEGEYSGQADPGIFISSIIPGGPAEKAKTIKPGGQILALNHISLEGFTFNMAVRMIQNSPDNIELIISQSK
row,Binder,pKd
1,"ANGLMQTSKL [SSTR5, P35346]",below the threshold
2,"ETSLVKGIDI [DENND5A, Q6IQ26]",below the threshold

# Molecular target: T6, SYNJ2BP, P57105
# Assay: holdup assay
# Set-up: key: below the threshold = too weak to quantify, mostly under pKd 3.1 to 4
# Conditions: plain residues with an end cap or a label only (N-terminal biotin on a linker: ado-ado)
row,Binder,pKd
1,"ANGLMQTSKL [SSTR5, P35346]",below the threshold
2,"ETSLVKGIDI [DENND5A, Q6IQ26]",below the threshold

# Molecular target: T7, GRIP1_7, Q9Y3R0
# Assay: holdup assay
# Set-up: key: below the threshold = too weak to quantify, mostly under pKd 3.1 to 4
# Conditions: plain residues with an end cap or a label only (N-terminal biotin on a linker: ado-ado)
row,Binder,pKd
1,"ANGLMQTSKL [SSTR5, P35346]",below the threshold
2,"ETSLVKGIDI [DENND5A, Q6IQ26]",below the threshold

# Molecular target: T8, APBA1_1, Q02410
# Assay: holdup assay
# Set-up: key: below the threshold = too weak to quantify, mostly under pKd 3.1 to 4
# Conditions: plain residues with an end cap or a label only (N-terminal biotin on a linker: ado-ado)
row,Binder,pKd
1,"ANGLMQTSKL [SSTR5, P35346]",below the threshold
2,"ETSLVKGIDI [DENND5A, Q6IQ26]",below the threshold

# Molecular target: GRID2IP_1, A4D2P6
# Assay: holdup assay
# Set-up: key: below the threshold = too weak to quantify, mostly under pKd 3.1 to 4
# Conditions: plain residues with an end cap or a label only (N-terminal biotin on a linker: ado-ado)
# GRID2IP_1, A4D2P6, sequence (A4D2P6 1-87): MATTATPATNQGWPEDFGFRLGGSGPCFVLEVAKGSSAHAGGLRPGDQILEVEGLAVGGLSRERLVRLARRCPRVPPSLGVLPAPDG
row,Binder,pKd
1,"ANGLMQTSKL [SSTR5, P35346]",below the threshold
2,"ETSLVKGIDI [DENND5A, Q6IQ26]",below the threshold

# Molecular target: T9, APBA1_2, Q02410
# Assay: holdup assay
# Set-up: key: below the threshold = too weak to quantify, mostly under pKd 3.1 to 4
# Conditions: plain residues with an end cap or a label only (N-terminal biotin on a linker: ado-ado)
row,Binder,pKd
1,"ANGLMQTSKL [SSTR5, P35346]",below the threshold
2,"ETSLVKGIDI [DENND5A, Q6IQ26]",3.47

# Molecular target: T10, LNX2_3, Q8N448
# Assay: holdup assay
# Set-up: key: below the threshold = too weak to quantify, mostly under pKd 3.1 to 4
# Conditions: plain residues with an end cap or a label only (N-terminal biotin on a linker: ado-ado)
row,Binder,pKd
1,"ANGLMQTSKL [SSTR5, P35346]",below the threshold
2,"ETSLVKGIDI [DENND5A, Q6IQ26]",below the threshold

# Molecular target: T11, SHANK1, Q9Y566
# Assay: holdup assay
# Set-up: key: below the threshold = too weak to quantify, mostly under pKd 3.1 to 4
# Conditions: plain residues with an end cap or a label only (N-terminal biotin on a linker: ado-ado)
row,Binder,pKd
1,"ANGLMQTSKL [SSTR5, P35346]",4.65
2,"ETSLVKGIDI [DENND5A, Q6IQ26]",below the threshold

# Molecular target: NHERF4_4, Q86UT5
# Assay: holdup assay
# Set-up: key: below the threshold = too weak to quantify, mostly under pKd 3.1 to 4
# Conditions: plain residues with an end cap or a label only (N-terminal biotin on a linker: ado-ado)
# NHERF4_4, Q86UT5, sequence (Q86UT5 464-550): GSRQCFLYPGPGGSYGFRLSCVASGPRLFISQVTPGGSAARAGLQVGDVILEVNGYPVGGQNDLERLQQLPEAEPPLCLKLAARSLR
row,Binder,pKd
1,"ANGLMQTSKL [SSTR5, P35346]",below the threshold
2,"ETSLVKGIDI [DENND5A, Q6IQ26]",3.87

# Molecular target: T12, MPP7, Q5T2T1
# Assay: holdup assay
# Set-up: key: below the threshold = too weak to quantify, mostly under pKd 3.1 to 4
# Conditions: plain residues with an end cap or a label only (N-terminal biotin on a linker: ado-ado)
row,Binder,pKd
1,"ANGLMQTSKL [SSTR5, P35346]",below the threshold
2,"ETSLVKGIDI [DENND5A, Q6IQ26]",4.47

# Molecular target: T13, HTRA3, P83110
# Assay: holdup assay
# Set-up: key: below the threshold = too weak to quantify, mostly under pKd 3.1 to 4
# Conditions: plain residues with an end cap or a label only (N-terminal biotin on a linker: ado-ado)
row,Binder,pKd
1,"ANGLMQTSKL [SSTR5, P35346]",below the threshold
2,"ETSLVKGIDI [DENND5A, Q6IQ26]",3.91

# From publication PMC9482650, “Quantitative fragmentomics allow affinity mapping of interactomes” (Nature Communications, 2022)
